Test results taken from patent US9284543B2, “Neutral active soluble truncated PH20 polypeptides and uses thereof” (Halozyme, Inc., priority 2008, dated 2016).

Legend:
CHO-S cells = assay: PI-PLC treatment of expressing cells, Western blot of media and cells; format: cell-based, Chinese Hamster; settings: cells incubated with PI-PLC for 2 hours
Method: In this example, following transient expression, as described in Example 2 above, the media and cells were harvested separately and analyzed for PH20 expression and solublility by Western blot analysis. Solubility of the C-terminus truncation mutants was determined by examining whether the expressed protein was present in the growth media or in the cells. […] Cells expressing these mutants were treated with phosphoinositol-phospholipase C (PI-PLC), which cleaves the GPI-anchor allowing the release of soluble protein into the media, and the presence of PH20 in the resulting media and cells was determined by Western blot analysis.
Following expression of rHuPH20 in CHO—S cells for 72 hours, as described in Example 2A above, the media and cells were harvested separately. The cells were washed with serum-free media followed by the addition of 2 mL serum-free media per well. PI-PLC (0.5 units/well) was added to each well and the cells were incubated in the PI-PLC for 2 hours. The resultant media and cells were analyzed by Western blot analysis as described above.
Two plates each of rHuPH20 expressing CHO—S cells, one for treatment with PI-PLC and one without treatment with PI-PLC, were prepared for each C-terminus mutant as described in Example 2B above. Following expression for 48 hours, for cells untreated with PI-PLC, the media and cells were harvested separately. The harvested media was spun down, concentrated to a volume of 10 mL, and buffer exchanged into PBS using an Amicon 30 kD MWCO concentrator. The cells were rinsed with cold PBS and scraped and resuspended in 1.2 mL PBS with protease inhibitor Set III (Cat No. 539134, Calbiochem). The resuspended cells were briefly sonicated to prepare whole-cell extract. For PI-PLC treatment of cells, following expression for 48 hours, the untreated media was harvested, as described above. The cells were rinsed once with fresh CD DG44 medium with Glutamax-1, and the media was replaced with 12 mL fresh detergent free CD DG44 medium supplemented with Glutamax-1 with 3.0 units PI-PLC per dish, and the cells were incubated for 2 hours at 37° C. with 5% CO2. After 2 hours, the PI-PLC media and cells were harvested separately, as described above. The resultant untreated media and cells, and PI-PLC treated media and cells, were analyzed by Western blot analysis as described above.

[1] = Microtiter hyaluronidase activity assay with biotinylated-hyaluronic acid; format: biochemical; settings: for pH 5.5 Activity / pH 7.4 Activity: 72 hour post transfection supernatant; for Hyaluronidase activity (in words): pH 7.4 and pH 5.5
[2] = Hyaluronidase activity of N-glycan site specific deglycosylation mutants (biotinylated-HA assay); format: biochemical; settings: media of transfected CHO-S cells
Method: In short, a 4×BH 96-well plate was coated with biotinylated-HA (1.1 MDa). The 72 hour post transfection supernatant from cells transfected with human PH20 hyaluronidase carboxy-terminus deletion mutants was diluted in buffer at either pH 7.4 or pH 5.5 and added to individual wells of the plate and allowed to incubate at 37° C. for 90 minutes. The reaction was terminated by addition of 4M guanidine HCl. The wells were washed 4× with Phosphate Buffered Saline with Tween20 (PBST) to remove any digested biotinylated-HA followed by addition of streptavidin-HRP for 1 hour at room temperature. The wells were washed 4× with PBST and the plate was developed with TMB. The plate was read at 450 nm using an ELISA plate reader. Hyaluronidase activity (in Units/mL) was determined by interpolating the measured absorbance at 450 nm with a hyaluronidase reference standard curve. Full length mature human PH20 hyaluronidase and untransfected CHO cells were used as positive and negative controls.
PH20sHis (SEQ ID NO:210) was used as a template for mutagenesis of each asparagine residue to alanine using QuikChange® Site-Directed Mutagenesis Kit (Cat No. 200518, Stratagene). […] Six single mutants were generated, one for each of the N-glycosylation sites. Additionally, three double mutants and a triple mutant were generated for asparagines N82, N166 and N254, all of which are occupied by complex type glycans. Finally, a double mutant N368A/N393A was generated, lacking high mannose glycans. The mutants were transfected into CHO—S cells and expression was performed as described in Example 2A. Secretion into the media and hyaluronidase activity were determined as described in Examples 3 and 5, above.

Row | Molecule | Expressed in Media Following Addition of PI-PLC (CHO-S cells) | pH 5.5 Activity ([1]; Table 6) | pH 7.4 Activity ([1]; Table 6) | pH 5.5 Activity ([1]; Table 6A) | pH 7.4 Activity ([1]; Table 6A) | Hyaluronidase activity (in words) [1] | Activity pH 5.5 [2] | Activity pH 7.4 [2]
1 | SPAM1-ILFL: C-terminally truncated human PH20, precursor 501 aa (SEQ ID NO:6), mature 466 aa (SEQ ID NO:58) (protein, listed as Homo sapiens, HuPH20 precursor 1-501; mature HuPH20 36-501) chain 1: MGVLKFKHIFFRSFVKSSGVSQIVFTFLLIPCCLTLNFRAPPVIPNVPFLWAWNAPSEFCLGKFDEPLDMSLFSFIGSPRINATGQGVTIFYVDRLGYYPYIDSITGVTVNGGIPQKISLQDHLDKAKKDITFYMPVDNLGMAVIDWEEWRPTWARNWKPKDVYKNRSIELVQQQNVQLSLTEATEKAKQEFEKAGKDFLVETIKLGKLLRPNHLWGYYLFPDCYNHHYKKPGYNGSCFNVEIKRNDDLSWLWNESTALYPSIYLNTQQSPVAATLYVRNRVREAIRVSKIPDAKSPLPVFAYTRIVFTDQVLKFLSQDELVYTFGETVALGASGIVIWGTLSIMRSMKSCLLLDNYMETILNPYIINVTLAAKMCSQVLCQEQGVCIRKNWNSSDYLHLNPDNFAIQLEKGGKFTVRGKPTLEDLEQFSEKFYCSCYSTLSCKEKADVKDTDAVDVCIADGVCIDAFLKPPMETEEPQIFYNASPSTLSATMFIVSILFL chain 2: LNFRAPPVIPNVPFLWAWNAPSEFCLGKFDEPLDMSLFSFIGSPRINATGQGVTIFYVDRLGYYPYIDSITGVTVNGGIPQKISLQDHLDKAKKDITFYMPVDNLGMAVIDWEEWRPTWARNWKPKDVYKNRSIELVQQQNVQLSLTEATEKAKQEFEKAGKDFLVETIKLGKLLRPNHLWGYYLFPDCYNHHYKKPGYNGSCFNVEIKRNDDLSWLWNESTALYPSIYLNTQQSPVAATLYVRNRVREAIRVSKIPDAKSPLPVFAYTRIVFTDQVLKFLSQDELVYTFGETVALGASGIVIWGTLSIMRSMKSCLLLDNYMETILNPYIINVTLAAKMCSQVLCQEQGVCIRKNWNSSDYLHLNPDNFAIQLEKGGKFTVRGKPTLEDLEQFSEKFYCSCYSTLSCKEKADVKDTDAVDVCIADGVCIDAFLKPPMETEEPQIFYNASPSTLSATMFIVSILFL | YES | 0.0405 Units/ml | 0.0405 Units/ml | 0.122 Units/ml | 0.446 Units/ml | little detectable activity |  | 
2 | SPAM1-LFLI: C-terminally truncated human PH20, precursor 502 aa (SEQ ID NO:47), mature 467 aa (SEQ ID NO:99) (protein, listed as Homo sapiens, HuPH20 precursor 1-502; Mature HuPH20 36-502) chain 1: MGVLKFKHIFFRSFVKSSGVSQIVFTFLLIPCCLTLNFRAPPVIPNVPFLWAWNAPSEFCLGKFDEPLDMSLFSFIGSPRINATGQGVTIFYVDRLGYYPYIDSITGVTVNGGIPQKISLQDHLDKAKKDITFYMPVDNLGMAVIDWEEWRPTWARNWKPKDVYKNRSIELVQQQNVQLSLTEATEKAKQEFEKAGKDFLVETIKLGKLLRPNHLWGYYLFPDCYNHHYKKPGYNGSCFNVEIKRNDDLSWLWNESTALYPSIYLNTQQSPVAATLYVRNRVREAIRVSKIPDAKSPLPVFAYTRIVFTDQVLKFLSQDELVYTFGETVALGASGIVIWGTLSIMRSMKSCLLLDNYMETILNPYIINVTLAAKMCSQVLCQEQGVCIRKNWNSSDYLHLNPDNFAIQLEKGGKFTVRGKPTLEDLEQFSEKFYCSCYSTLSCKEKADVKDTDAVDVCIADGVCIDAFLKPPMETEEPQIFYNASPSTLSATMFIVSILFLI chain 2: LNFRAPPVIPNVPFLWAWNAPSEFCLGKFDEPLDMSLFSFIGSPRINATGQGVTIFYVDRLGYYPYIDSITGVTVNGGIPQKISLQDHLDKAKKDITFYMPVDNLGMAVIDWEEWRPTWARNWKPKDVYKNRSIELVQQQNVQLSLTEATEKAKQEFEKAGKDFLVETIKLGKLLRPNHLWGYYLFPDCYNHHYKKPGYNGSCFNVEIKRNDDLSWLWNESTALYPSIYLNTQQSPVAATLYVRNRVREAIRVSKIPDAKSPLPVFAYTRIVFTDQVLKFLSQDELVYTFGETVALGASGIVIWGTLSIMRSMKSCLLLDNYMETILNPYIINVTLAAKMCSQVLCQEQGVCIRKNWNSSDYLHLNPDNFAIQLEKGGKFTVRGKPTLEDLEQFSEKFYCSCYSTLSCKEKADVKDTDAVDVCIADGVCIDAFLKPPMETEEPQIFYNASPSTLSATMFIVSILFLI | YES |  |  | 0.324 Units/ml | 0.608 Units/ml | little detectable activity |  | 
3 | N82A/N166A/N254A: PH20sHis triple mutant, SEQ ID NO:209 (protein, His tag; PH20sHis N82A/N166A/N254A) MGVLKFKHIFFRSFVKSSGVSQIVFTFLLIPCCLTLNFRAPPVIPNVPFLWAWNAPSEFCLGKFDEPLDMSLFSFIGSPRIAATGQGVTIFYVDRLGYYPYIDSITGVTVNGGIPQKISLQDHLDKAKKDITFYMPVDNLGMAVIDWEEWRPTWARNWKPKDVYKARSIELVQQQNVQLSLTEATEKAKQEFEKAGKDFLVETIKLGKLLRPNHLWGYYLFPDCYNHHYKKPGYNGSCFNVEIKRNDDLSWLWAESTALYPSIYLNTQQSPVAATLYVRNRVREAIRVSKIPDAKSPLPVFAYTRIVFTDQVLKFLSQDELVYTFGETVALGASGIVIWGTLSIMRSMKSCLLLDNYMETILNPYIINVTLAAKMCSQVLCQEQGVCIRKNWNSSDYLHLNPDNFAIQLEKGGKFTVRGKPTLEDLEQFSEKFYCSCYSTLSCKEKADVKDTDAVDVCIADGVCIDAFLKPPMETEEPQIFYNASPSTLSHHHHHH |  |  |  |  |  |  | YES | YES
4 | N82A: PH20sHis N-glycosylation site mutant N82A, SEQ ID NO:202 (protein, His tag; PH20sHis N82A) MGVLKFKHIFFRSFVKSSGVSQIVFTFLLIPCCLTLNFRAPPVIPNVPFLWAWNAPSEFCLGKFDEPLDMSLFSFIGSPRIAATGQGVTIFYVDRLGYYPYIDSITGVTVNGGIPQKISLQDHLDKAKKDITFYMPVDNLGMAVIDWEEWRPTWARNWKPKDVYKNRSIELVQQQNVQLSLTEATEKAKQEFEKAGKDFLVETIKLGKLLRPNHLWGYYLFPDCYNHHYKKPGYNGSCFNVEIKRNDDLSWLWNESTALYPSIYLNTQQSPVAATLYVRNRVREAIRVSKIPDAKSPLPVFAYTRIVFTDQVLKFLSQDELVYTFGETVALGASGIVIWGTLSIMRSMKSCLLLDNYMETILNPYIINVTLAAKMCSQVLCQEQGVCIRKNWNSSDYLHLNPDNFAIQLEKGGKFTVRGKPTLEDLEQFSEKFYCSCYSTLSCKEKADVKDTDAVDVCIADGVCIDAFLKPPMETEEPQIFYNASPSTLSHHHHHH |  |  |  |  |  |  | YES | YES
5 | N166A: PH20sHis N-glycosylation site mutant N166A, SEQ ID NO:203 (protein, His tag; PH20sHis N166A) MGVLKFKHIFFRSFVKSSGVSQIVFTFLLIPCCLTLNFRAPPVIPNVPFLWAWNAPSEFCLGKFDEPLDMSLFSFIGSPRINATGQGVTIFYVDRLGYYPYIDSITGVTVNGGIPQKISLQDHLDKAKKDITFYMPVDNLGMAVIDWEEWRPTWARNWKPKDVYKARSIELVQQQNVQLSLTEATEKAKQEFEKAGKDFLVETIKLGKLLRPNHLWGYYLFPDCYNHHYKKPGYNGSCFNVEIKRNDDLSWLWNESTALYPSIYLNTQQSPVAATLYVRNRVREAIRVSKIPDAKSPLPVFAYTRIVFTDQVLKFLSQDELVYTFGETVALGASGIVIWGTLSIMRSMKSCLLLDNYMETILNPYIINVTLAAKMCSQVLCQEQGVCIRKNWNSSDYLHLNPDNFAIQLEKGGKFTVRGKPTLEDLEQFSEKFYCSCYSTLSCKEKADVKDTDAVDVCIADGVCIDAFLKPPMETEEPQIFYNASPSTLSHHHHHH |  |  |  |  |  |  | YES | YES
